Residue numbers refer to the chain shown, from its start.
B1: TA103-2 Fab' (Fab, V domains shown)
VH: QVQLVQSGAEVKKPGASVKVSCKASGYSFTDYYMTWVRQAPGQGLEWMGWINPNSGGTKYAQKFQGRVTMTRDTSISTAYMELSRLRSDDTAVYYCARGYYANSAWFAYWGQGTLVTVSS
VL: DIVMTQSPDSLAVSLGERATINCKSSQSLLNSRTSKNYLAWYQQKPGQPPKLLIYWASTRESGVPDRFSGSGSGTDFTLTISSLQAEDVAVYYCKQVYNLPWTFGQGTKLEIK
notes: Humaneered Fab' expressed in E. coli
B2: TA101-1 Fab' (Fab, V domains shown)
VH: B1 VH
VL: B1 VL with R33S
notes: as for B1
B3: TA102-4 Fab' (Fab, V domains shown)
VH: B1 VH
VL: B1 VL with L29V, T34N, S35K
notes: as for B1
B4: cloned Fab' TA003 (Fab, V domains shown)
VH: EVQLQQSGPELVKPGASVKIPCKASGYTFTDYNMDWVKQSHGKSLEWIGDINPNNGGTIYNQKFKGKATLTVDKSSSTAYMELRSLTSEDTAVYYCARGYYSNSAWFAYWGQGTLVTVSA
VL: DIVMSQSPSSLAVSAGEKVTMSCKSSQSLLNSRTRKNYLAWYQQKPGQSPKLLIYWASTRESGVPDRFTGSGSGTDFTLTISSVQAEDLAVYYCKQSYNLPWTFGGGTKLEIKR
notes: No sentence ties the name TA003 to these numbers directly; also called the cloned Fab'; purified Fab' protein (cloned V-regions from the hybridoma producing mAb 1379)
B5: Fab' derived from mAb 1379 by papain digestion (Fab, V domains shown)
VH: B4 VH
VL: B4 VL
notes: Papain fragment of the murine IgG1 kappa hybridoma antibody mAb 1379 (ATCC PTA-6230); also called murine Fab
B6: TA10 reference Fab' (Fab, V domains shown)
VH: B4 VH with A120S
VL: DIVMSQSPSSLAVSAGEKVTMSCKSSQSLLNSRTRKNYLAWYQQKPGQSPKLLIYWASTRESGVPDRFTGSGSGTDFTLTISSVQAEDLAVYYCKQSYNLPWTFGQGTKLEIK

Assays:
[1] = target: T1, recombinant human factor B (human, UniProt P00751 26-764, biotinylated (EZ-link) in the Octet assay only; sites not stated); experiment: BLI (ForteBio Octet), biotinylated human factor B on neutravidin sensors, Fab' at 1e-7 M; KD = Kdissoc/Kassoc
T1 construct: also called purified factor B protein
T1 sequence (P00751 26-764): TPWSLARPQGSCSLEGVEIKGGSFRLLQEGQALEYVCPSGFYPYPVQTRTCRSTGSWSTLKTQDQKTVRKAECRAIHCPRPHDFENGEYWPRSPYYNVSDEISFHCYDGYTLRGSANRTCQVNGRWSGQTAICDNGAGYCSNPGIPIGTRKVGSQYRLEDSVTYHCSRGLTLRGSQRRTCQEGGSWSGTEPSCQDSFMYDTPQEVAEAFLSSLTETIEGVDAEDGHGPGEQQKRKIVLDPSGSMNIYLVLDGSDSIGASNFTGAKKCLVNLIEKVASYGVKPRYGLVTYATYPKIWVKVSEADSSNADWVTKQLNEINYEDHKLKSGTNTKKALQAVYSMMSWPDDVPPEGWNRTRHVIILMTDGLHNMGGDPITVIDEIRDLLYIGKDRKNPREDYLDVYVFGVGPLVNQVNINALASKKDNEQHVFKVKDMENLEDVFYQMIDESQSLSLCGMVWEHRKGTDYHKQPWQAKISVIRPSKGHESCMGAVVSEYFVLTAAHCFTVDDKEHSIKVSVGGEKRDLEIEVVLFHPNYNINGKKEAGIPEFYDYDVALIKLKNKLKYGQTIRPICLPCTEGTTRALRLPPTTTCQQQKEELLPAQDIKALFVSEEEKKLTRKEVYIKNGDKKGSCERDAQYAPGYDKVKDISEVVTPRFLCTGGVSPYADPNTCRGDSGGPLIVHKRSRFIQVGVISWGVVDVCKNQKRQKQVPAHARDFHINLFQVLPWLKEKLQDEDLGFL
Method: (§1) Binding kinetics of the Fab′ fragments were analyzed using a FortéBio® Octet® biosensor (FortéBio, Inc., Menlo Park, Calif.). Recombinant human factor B was biotinylated with the EZ-link biotinylation system (Pierce Biotechnology, Rockford, Ill.) according to the manufacturer's instructions. The antigen was then coupled to neutravidin-coated sensors (FortéBio, Inc., Menlo Park, Calif.) according to the manufacturer's instructions. Fab′ binding was then monitored in real time using bio-layer interferometry analysis and software provided by the manufacturer. Antigen binding affinities were calculated for the tested Fab′ fragments based on the measured association (“Kassoc”) and dissociation (“Kdissoc”) constants. Preferably humaneered antibodies or antibody fragments with equilibrium dissociation constants the same or […] than that of the reference antibody (i.e., mAb 1379) or antibody fragment (i.e., TA10).
(§2) Fully humaneered Fab′ fragments were isolated by colony lift binding assays and confirmed as factor B binders by ELISA. Humaneered Fab′ fragments showing strong positive signals by ELISA were purified and further characterized in comparison to the reference Fab′ fragment TA10, which has murine V-region sequences from mAb 1379. Kinetics of Fab′ fragment binding to recombinant human factor B were analyzed with the FortéBio® Octet® system by bio-layer interferometry, providing real time label-free monitoring of protein-protein interactions. Measured association (Kassoc) and dissociation (Kdissoc) constants, and calculated equilibrium dissociation constants (KD=Kdissoc/Kassoc) (i.e., binding affinity), are shown in Table 1.

[2] = target: T1, recombinant human factor B; experiment: BLI (ForteBio Octet), biotinylated human factor B on neutravidin sensors, Fab' at 1e-7 M
Method: as §1, §2

[3] = target: T1, recombinant human factor B; experiment: dilution ELISA, factor B coated at 50 ng/well [upper panel]
[4] = target: T1, recombinant human factor B; experiment: dilution ELISA, factor B coated at 25 ng/well [upper panel]
[5] = target: T1, recombinant human factor B; experiment: dilution ELISA, factor B coated at 25 ng/well [lower panel]
Method: (§3) Next, the ability of the cloned VH and Vκ sequences to bind factor B was assayed. The cloned VH- and Vκ-regions were expressed in bacteria as Fab′ fragments, purified, and tested for binding to factor B in a dilution ELISA. FIG. 4 compares factor B binding of the cloned Fab′ TA003 to that of a Fab′ derived from mAb1379. As expected, both the cloned Fab′ and murine Fab produced binding curves that were dependent on both antibody and antigen concentration.

[6] = target: T1, recombinant human factor B; experiment: dilution ELISA, factor B coated at 50 ng/well [lower panel]
Method: as §3

[7] = target: T1, recombinant human factor B; experiment: dilution ELISA, factor B coated at 100 ng/well [lower panel]
Method: as §3

Binder | Kd [1] | koff [2] | other results
B1 | 3.73 nM | 0.0028 s⁻¹ | 
B2 | 4.53 nM | 0.00233 s⁻¹ | 
B3 | 5.4 nM | 0.00437 s⁻¹ | kon [2]: 810000 M⁻¹ s⁻¹
B4 |  |  | EC50 (read off the curve) [3]: ~20 nM; EC50 (read off the curve) [4]: ~40 nM
B5 |  |  | EC50 (read off the curve) [5]: ~30 nM; EC50 (read off the curve) [6]: ~10 nM; EC50 (read off the curve) [7]: ~8 nM
B6 | 6.55 nM | 0.00296 s⁻¹ | 

Source: patent publication US20130216529A1 (TALIGEN THERAPEUTICS, published 2013)
